Target: T1, AtMYB5trunc (truncated MYB5, MYB DNA-binding domain) (Arabidopsis thaliana (Col)) (UniProt Q38850)
T1 sequence: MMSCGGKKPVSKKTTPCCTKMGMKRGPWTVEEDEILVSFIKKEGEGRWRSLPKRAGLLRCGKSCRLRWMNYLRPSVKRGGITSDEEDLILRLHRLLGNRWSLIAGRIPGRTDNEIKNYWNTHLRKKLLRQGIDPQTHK
Experiment: EMSA
Details: 20 mM NaCl, 5 mM MgCl2, 20 mM Tris pH 8.0, 10% glycerol, 0.5 mM EDTA, 0.5 mM DTT, poly d(I-C); temperature not stated

Sequence: CGATGGTCACTTTCCTCATACTCTTTCTATATTGACTGTTAGTTTCTGGTCATTCTCGAAACAAACACTACATTGACTGTTAGATTTCTCATTTCAACCAAAGTAAGTAATAAATTCTGAACC (double strand) [ABE4 promoter probe]
- binding: binds more weakly

Reference: article PMC8553427
